# From publication PMC8939767 (Science Translational Medicine, 2022)
# B1: CC40.8 broadly neutralizing antibody (IgG) (antibody, V domains shown)
# VH: EVQLLESGGGLVQPGGSLRLSCAASGFTFSSYVMTWARQAPGKGLEWVSAISGTGYTYYADSVKGRFTVSRDNSKNTLFLQMSSLRAEDTAVYYCAITMAPVVWGQGTTVTVSS
# VL: SYELTQPPSVSVSPGQTARITCSGDALPKRYAYWYQQKSGQAPILVIYEDKKRPSGIPERLSGSKSGTVATLTISGAQVEDEADYYCYSTDSSGNHAVFGGGTQLTVL
# notes: also called CC40.8 bnAb; CC40.8 mAb
# Biological target: SARS-CoV-2 spike S2P (soluble S trimer with two proline mutations) (SARS-CoV-2, Wuhan reference, UniProt P0DTC2, stabilised)
# Assay: BLI; […] (AHC) sensors, […], association 120 s, […]
# Settings: both partners purified
binder,measurement,value
B1,binding result,binds
